Molecular target: T1, CEACAM6 antigen (carcinoembryonic antigen related cell adhesion molecule 6) (human, UniProt P40199 35-320)
T1 construct: also called CD66c
T1 sequence: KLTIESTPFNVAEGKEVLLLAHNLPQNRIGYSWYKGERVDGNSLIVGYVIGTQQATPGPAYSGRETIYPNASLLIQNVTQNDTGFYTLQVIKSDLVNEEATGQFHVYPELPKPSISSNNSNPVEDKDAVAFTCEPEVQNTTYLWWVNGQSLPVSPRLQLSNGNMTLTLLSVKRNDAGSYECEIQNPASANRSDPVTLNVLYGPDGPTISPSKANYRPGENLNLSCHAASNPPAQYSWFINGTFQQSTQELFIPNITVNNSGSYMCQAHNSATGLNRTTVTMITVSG
Assay: SPR, format not stated

Kd: 5 nM
B1: 2A3 camelid single domain antibody (anti-CEACAM6) (VHH)
VHH: QVKLEESGGGLVQAGGSLRLSCRTSGRTNSVYTMGWFRQAPGKEREFVAQIMWGAGTNTHYADSVKGRFTISRDSAESTVYLQMNSLKPEDTAVYYCAANRGIPIAGRQYDYWGQGTQVTVSS
notes: Llama sdAb isolated from a whole cancer cell immunized library; also called 2A3 antibody; 2A3 anti-CEACAM6 antibody

Reference: patent publication US20180016337A1 (HELIX BIOPHARMA, published 2018)
